Consider 1 molecule from patent US11352401.

This assay has as its target HLA-A*01 (human). Kind of assay: UV peptide-exchange ELISA; ++++ = yield >75%. Particulars: remark: other sources report otherwise. For orientation: ELISA stands for enzyme-linked immunosorbent assay.

On to NTDNNLAVY [… (SEQ ID NO: 164)], for which the peptide exchange yield is more than 75%.
